EP4289863A9 (Shanghai Huaota Biopharmaceutical Co., Ltd., dated 2024)
Blank lines part the entries; values can stand above or below the binder they belong to.

Assays:
human IL-36R [1] = target: T1, human IL-36R (human, UniProt Q9HB29 20-575); experiment: cell-based or functional assay
T1 sequence (looked up): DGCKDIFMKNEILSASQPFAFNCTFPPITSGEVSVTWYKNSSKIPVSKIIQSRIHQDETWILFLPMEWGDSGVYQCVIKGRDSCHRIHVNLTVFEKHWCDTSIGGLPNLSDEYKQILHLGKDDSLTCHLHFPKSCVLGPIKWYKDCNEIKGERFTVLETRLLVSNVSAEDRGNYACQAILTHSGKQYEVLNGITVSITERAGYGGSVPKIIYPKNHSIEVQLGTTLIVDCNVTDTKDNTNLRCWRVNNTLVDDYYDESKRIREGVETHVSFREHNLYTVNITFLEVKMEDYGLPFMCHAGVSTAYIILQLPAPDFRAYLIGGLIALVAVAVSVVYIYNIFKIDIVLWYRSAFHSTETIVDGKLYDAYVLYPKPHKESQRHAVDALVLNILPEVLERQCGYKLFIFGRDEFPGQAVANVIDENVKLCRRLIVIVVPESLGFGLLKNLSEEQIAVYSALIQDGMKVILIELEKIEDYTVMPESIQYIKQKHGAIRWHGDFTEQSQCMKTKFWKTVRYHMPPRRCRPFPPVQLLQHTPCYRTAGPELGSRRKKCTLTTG

Human IL-17A [2] = target: T2, Human IL-17A (human, UniProt Q16552 24-155); experiment: ELISA, human IL-17A coated at 1 µg/ml
T2 construct: also called IL-17A recombinant protein; IL-17A soluble recombinant protein
T2 sequence (looked up): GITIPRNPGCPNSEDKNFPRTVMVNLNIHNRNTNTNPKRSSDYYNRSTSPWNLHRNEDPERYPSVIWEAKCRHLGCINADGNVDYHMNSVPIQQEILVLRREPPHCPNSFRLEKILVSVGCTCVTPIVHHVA

human IL-36R [3] = target: T1, human IL-36R; experiment: flow cytometry on CHO-K1-huIL-36R-5E10/2F10 cells
[4] = target: T3, IL36R (analyte of Table 17) (Homo sapiens (Human), UniProt Q9HB29 20-335); experiment: SPR Biacore 8K, antibody captured on anti-human chip, antigen as analyte, 1:1 model
T3 sequence: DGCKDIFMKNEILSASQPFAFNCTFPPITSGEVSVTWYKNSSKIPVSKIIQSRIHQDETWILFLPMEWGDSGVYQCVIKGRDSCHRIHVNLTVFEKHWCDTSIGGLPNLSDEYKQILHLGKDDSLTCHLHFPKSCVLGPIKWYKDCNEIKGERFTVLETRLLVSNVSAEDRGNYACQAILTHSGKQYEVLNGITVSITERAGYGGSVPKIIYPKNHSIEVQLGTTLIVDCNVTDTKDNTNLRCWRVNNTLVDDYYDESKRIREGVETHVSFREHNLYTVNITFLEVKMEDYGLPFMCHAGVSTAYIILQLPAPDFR

[5] = target: T4, IL17A (analyte of Table 17) (Homo sapiens (Human), UniProt Q16552 24-155); experiment: as above
T4 sequence: T2 sequence (looked up)

Human IL-17A [6] = target: T2, Human IL-17A; experiment: cell-based or functional assay
human IL-36R [7] = target: T1, human IL-36R; experiment: cell-based or functional assay; remark: listed apart in the source
human IL-36R [8] = target: T1, human IL-36R; experiment: cell-based or functional assay; remark: listed apart in the source
human IL-36R [9] = target: T1, human IL-36R; experiment: cell-based or functional assay; remark: listed apart in the source
human IL-36R [10] = target: T1, human IL-36R; experiment: cell-based or functional assay; remark: listed apart in the source
human IL-36R [11] = target: T1, human IL-36R; experiment: cell-based or functional assay; remark: listed apart in the source
human IL-36R [12] = target: T1, human IL-36R; experiment: flow cytometry on CHO-K1 cells expressing human IL-36R
monkey IL-36R = target: T5, monkey IL-36R (monkey); experiment: flow cytometry on CHO-K1 cells expressing monkey IL-36R
T5 construct: whole, on cells

[13] = target: T6, His-tagged human IL-1 Rrp2/IL-1R6 protein (human, UniProt Q9HB29 20-335, limits assumed); experiment: SPR Biacore 8K, His-tagged antigen captured by anti-His antibody, antibody as analyte, 1:1 model
T6 construct: Bought protein; also called His-tagged human IL-1 Rrp2/IL-IR6 protein; not shown: His tag
T6 sequence (looked up): T3 sequence

B1: IL17A-IL36R bispecific antibody 700005 (bispecific antibody)
heavy (part 1 of 2): QVQLVQSGSELKKPGASVKVSCKASEYIFTNYGMNWVKQAPGQGFEWMGWIDTNTGEPTYAQGFTGRFVFSLDTSVSTAYLQISSLKAEDTATYYCANYGWGYFDYWGQGTTVTVSS
heavy (part 2 of 2): GGGGSGGGGSGGGGSGGGGSQIVLTQSPGTLSLSPGERATLSCRASSSVSSSYLHWYQQKPGQAPRLWIYSTSSRATGIPDRFSGSGSGTDFTLTISRLEPEDFATYYCQQFQSSPLTFGQGTKLEIKGGGGSGGGGSGGGGSQVQLVQSGAEVKKPGASVKVSCKASGYTFTSSWMHWAKQAPGQGLEWIGEIHPNSAKTNYNQKFQGRVTMTRDTSISTAYMELSRLRSDDTAVYYCARVDYGKPWFAYWGQGTLVTVSS
light: DVVMTQTPPSLPVNPGEPASISCRSSQSLVHSNGYTYLHWYLQKPGQSPQLLIYKVSNHLSGVPDRFSGSGSGTDFTLKISWVEAEDVGVYFCSQSTHVPYTFGGGTKLEIKRTVAAPSVFIFPPSDEQLKSGTASVVCLLNNFYPREAKVQWKVDNALQSGNSQESVTEQDSKDSTYSLSSTLTLSKADYEKHKVYACEVTHQGLSSPVTKSFNRGEC
notes: also called 70005; not shown: heavy constant region CH1-CH2-CH3
EC50 of inhibition of IL-6 content, NCI/ADR-RES cells stimulated with IL-36β (human IL-36R [1]): 450 pM
EC50 (Human IL-17A [2]): 180 pM
EC50 (human IL-36R [3]): 747 pM
Kd [4]: 350 pM
koff [4]: 7.2e-05 s⁻¹
kon [4]: 205000 M⁻¹ s⁻¹
Kd [5]: 6.1 pM
koff [5]: 4.13e-05 s⁻¹
kon [5]: 6.77e+06 M⁻¹ s⁻¹

B3: IL17A-IL36R bispecific antibody 700007 (bispecific antibody)
heavy (part 1 of 2): B1 heavy (part 1 of 2)
heavy (part 2 of 2): GGGGSGGGGSGGGGSGGGGSQIVLTQSPGTLSLSPGERATLSCRASSSVSSSYLHWYQQKPGQAPRLWIYSTSSRATGIPDRFSGSGSGTDFTLTISRLEPEDFATYYCQQFQSSPLTFGQGTKLEIKGGGGSGGGGSGGGGSGGGGSQVQLVQSGAEVKKPGASVKVSCKASGYTFTSSWMHWAKQAPGQGLEWIGEIHPNSAKTNYNQKFQGRVTMTRDTSISTAYMELSRLRSDDTAVYYCARVDYGKPWFAYWGQGTLVTVSS
light: B1 light
notes: not shown: heavy constant region CH1-CH2-CH3
EC50 of inhibition of IL-6 content, NCI/ADR-RES cells stimulated with IL-36β (human IL-36R [1]): 480 pM
EC50 of inhibition of IL-6 secretion, HT-1080 cells stimulated with h IL17-A and h TNF-α (Human IL-17A [6]): 76.6 pM
EC50 (human IL-36R [3]): 693 pM
Kd [5]: 6.13 pM
koff [5]: 4.33e-05 s⁻¹
kon [5]: 7.06e+06 M⁻¹ s⁻¹

Continued by falling EC50 (human IL-36R [3]), values first:

EC50 of inhibition of IL-6 content, NCI/ADR-RES cells stimulated with IL-36β (human IL-36R [1]): 650 pM
EC50 of inhibition of IL-6 secretion, HT-1080 cells stimulated with h IL17-A and h TNF-α (Human IL-17A [6]): 100 pM
EC50 (human IL-36R [3]): 799 pM
Kd [5]: 7.96 pM
koff [5]: 5.71e-05 s⁻¹
kon [5]: 7.17e+06 M⁻¹ s⁻¹
B2: IL17A-IL36R bispecific antibody 700009 (bispecific antibody)
heavy (part 1 of 2): B1 heavy (part 1 of 2)
heavy (part 2 of 2): GGGGSGGGGSGGGGSGGGGSQIVLTQSPGTLSLSPGERATLSCRASSSVSSSYLHWYQQKPGQAPRLWIYSTSSRATGIPDRFSGSGSGTDFTLTISRLEPEDFATYYCQQFQSSPLTFGQGTKLEIKGGGGSGGGGSGGGGSGGGGSGGGGSQVQLVQSGAEVKKPGASVKVSCKASGYTFTSSWMHWAKQAPGQGLEWIGEIHPNSAKTNYNQKFQGRVTMTRDTSISTAYMELSRLRSDDTAVYYCARVDYGKPWFAYWGQGTLVTVSS
light: B1 light
notes: as for B3

IC50 of GM-CSF release, NCI/ADR-RES cells stimulated with IL-36α (human IL-36R [7]): 0.022 µg/mL
IC50 of GM-CSF release, NCI/ADR-RES cells stimulated with IL-36β (human IL-36R [7]): 0.0174 µg/mL
IC50 of GM-CSF release, NCI/ADR-RES cells stimulated with IL-36γ (human IL-36R [7]): 0.0198 µg/mL
IC50 of IL-6 release, NCI/ADR-RES cells stimulated with IL-36α (human IL-36R [7]): 0.015 µg/mL
IC50 of IL-6 release, NCI/ADR-RES cells stimulated with IL-36β (human IL-36R [7]): 0.0139 µg/mL
IC50 of IL-6 release, NCI/ADR-RES cells stimulated with IL-36γ (human IL-36R [7]): 0.0162 µg/mL
IC50 of IL-8 release, NCI/ADR-RES cells stimulated with IL-36α (human IL-36R [7]): 0.0315 µg/mL
IC50 of IL-8 release, NCI/ADR-RES cells stimulated with IL-36β (human IL-36R [7]): 0.0223 µg/mL
IC50 of IL-8 release, NCI/ADR-RES cells stimulated with IL-36γ (human IL-36R [7]): 0.0198 µg/mL
IC50 of pNF-κB, NCI/ADR-RES cells stimulated with IL-36β (human IL-36R [7]): 71.4 ng/mL
HuIL-6 detected in NCI/ADR-RES under IL-36β stimulation IC50 (human IL-36R [8]): 0.00887 µg/mL
HuIL-6 detected in HIF under IL-36α stimulation IC50 (human IL-36R [9]): 0.0479 µg/mL
HuIL-6 detected in HIF under IL-36β stimulation IC50 (human IL-36R [10]): 0.0546 µg/mL
pNFκB detected in HIF under IL-36β stimulation IC50 (human IL-36R [11]): 0.105 µg/mL
EC50 of inhibition of IL-6 content, NCI/ADR-RES cells stimulated with IL-36β (human IL-36R [1]): 69 pM
EC50 (human IL-36R [3]): 320 pM
EC50 (human IL-36R [12]): 0.062 µg/mL
EC50 (monkey IL-36R): 0.0595 µg/mL
Kd [4]: 141 pM
koff [4]: 0.00015 s⁻¹
kon [4]: 1.07e+06 M⁻¹ s⁻¹
Kd [13]: 45.2 pM
koff [13]: 4.37e-05 s⁻¹
kon [13]: 967000 M⁻¹ s⁻¹
B4: humanized anti-IL-36R antibody 900527 (antibody, V domains shown)
VH: QVQLVQSGAEVKKPGASVKVSCKASGYTFTSSWMHWAKQAPGQGLEWIGEIHPNSAKTNYNQKFQGRVTMTRDTSISTAYMELSRLRSDDTAVYYCARVDYGKPWFAYWGQGTLVTVSS
VL: QIVLTQSPGTLSLSPGERATLSCRASSSVSSSYLHWYQQKPGQAPRLWIYSTSSRATGIPDRFSGSGSGTDFTLTISRLEPEDFATYYCQQFQSSPLTFGQGTKLEIK
notes: IgG1 (vector with L234A, L235A) and human kappa
